Molecular target: T1, human GPRC5D (human, UniProt Q9NZD1 1-345)
T1 construct: whole, on cells; Target always presented on cells (K562-GPRC5D, RPMI 8226, MM.1S, NCI-H929); also called GPRC5D protein
Assay: flow cytometry, IgG1 antibody titrated on K562-GPRC5D cells

T1 sequence (Q9NZD1 whole entry): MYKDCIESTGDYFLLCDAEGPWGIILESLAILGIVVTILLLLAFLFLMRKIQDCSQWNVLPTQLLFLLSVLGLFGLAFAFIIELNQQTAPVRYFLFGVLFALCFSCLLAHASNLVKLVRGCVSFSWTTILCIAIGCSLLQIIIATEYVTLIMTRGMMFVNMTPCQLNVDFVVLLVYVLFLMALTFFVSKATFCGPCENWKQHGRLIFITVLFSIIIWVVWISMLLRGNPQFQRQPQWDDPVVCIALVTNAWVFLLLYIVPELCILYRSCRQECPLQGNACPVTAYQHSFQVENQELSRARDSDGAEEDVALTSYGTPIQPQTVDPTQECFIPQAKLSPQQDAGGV

binding result	Binder
binds	G05 humanized IgG1-type antibody (native structure) (antibody, V domains shown, also called G05-mAb) VH: EVQLVESGGGLVQPGGSLRLSCAASGFSLTDNGITWVRQAPGKGLEWIGIMTTGGSTYYAGWAKGRFTISRDNSKNTLYLQMNSLRAEDTATYFCTRGYGIHGLWGPGTLVTVSS VL: DIQMTQSPSSLSASVGDRVTITCQASESISKFLSWYQQKPGKVPKLLIYRASTLASGVPSRFSGSGSGTDFTLTISSLQPEDVATYYCQGYDGSSTTTNYESAFGQGTKLTVL
binds	G09 humanized IgG1-type antibody (native structure) (antibody, V domains shown, also called G09-mAb) VH: EVQLVESGGGLVQPGGSLRLSCAASGFSLSNNGITWVRQAPGKGLEWIGIITTTGSAYYAGWAKGRFTISRDNSKNTLYLQMNSLRAEDTAVYYCARGYGIHGLWGPGTLVTVSS VL: DIQMTQSPSSLSASVGDRVTITCQASESISNYLSWYQQKPGKVPKLLIYRASTLASGVPSRFSGSGSGTDFTLTISSLQPEDVATYYCQGYDGSASSSNYESAFGQGTKLTVL
binds	G07 humanized IgG1-type antibody (native structure) (antibody, V domains shown, also called G07-mAb) VH: EVQLVESGGGLVQPGGSLRLSCAASGFSLTDNGITWVRQAPGKGLEWIGIMTTGGTTYYAGWAKGRFTISRDNSKNTLYLQMNSLRAEDTAVYYCARGYGIHGLWGPGTLVTVSS VL: DIQMTQSPSSLSASVGDRVTITCQASESVSKFLSWYQQKPGKVPKLLIYRASTLASGVPSRFSGSGSGTDFTLTISSLQPEDVATYYCQGYDGSSTTTNYESAFGQGTKLTVL
binds	G02 humanized IgG1-type antibody (native structure) (antibody, V domains shown) VH: EVQLVESGGGLVQPGGSLRLSCTASGFSLSSNAMSWVRQAPGKGLEWIGSIGRSGSTYNANWAKGRFTISRDNSKNTVYLQMNSLRAEDTAVYFCAKFTGGVSGGYFSVWGPGTLVTVSS VL: DIQMTQSPSTLSASVGDRVIINCQASQSVYNNNLLSWYQQKPGKAPKLLIYAASNLASGVPSRFSGSGSGAEFTLTISSLQPDDFATYYCQGYYGGAICAFGQGTKLTVL

Molecular target: T1, human GPRC5D
Assay: flow cytometry, bispecific antibody titrated on NCI-H929 cells, APC anti-human IgG
Method: NCI-H929 and Jurkat cells were cultured for 48 hours, counted, and plated at a density of 2×10⁵ cells in 96-well V-bottom plates. The bispecific antibodies were serially diluted in PBS, with Talquetamab used as a positive control. The starting concentration was 100 μg/ml, followed by 1:5, 1:2, 1:2, 1:2, 1:2, 1:2, 1:2, 1:2 serial dilutions, resulting in […] for testing. 100 μl of proteins was added to each well with 200,000 cells. The BsAb was incubated with cells at 4° C. for 1 hour, washed three times with PBS and 0.2% FBS, and then APC-conjugated anti-human IgG mAb was added to each well. The cells were incubated with the secondary antibody for 1 hour at 4° C., washed three times again with PBS and 0.2% FBS, and then analyzed using flow cytometry.

binding result	Binder
binds	G05 BsAb (GPRC5D&CD3 bispecific antibody) (bispecific antibody, not shown: human kappa constant region of vector pTT5-hKappa) DIQMTQSPSSLSASVGDRVTITCQASESISKFLSWYQQKPGKVPKLLIYRASTLASGVPSRFSGSGSGTDFTLTISSLQPEDVATYYCQGYDGSSTTTNYESAFGQGTKLTVLGGGGSGGGGSGGGGSEVQLVESGGGLVQPGGSLRLSCAASGFSLTDNGITWVRQAPGKGLEWIGIMTTGGSTYYAGWAKGRFTISRDNSKNTLYLQMNSLRAEDTATYFCTRGYGIHGLWGPGTLVTVSSDKTHTCPPCPAPELLGGPSVFLFPPKPKDTLMISRTPEVTCVVVDVSHEDPEVKFNWYVDGVEVHNAKTKPREEQYNSTYRVVSVLTVLHQDWLNGKEYKCKVSNKALPAPIEKTISKAKGQPREPQVCTLPPSREEMTKNQVSLSCAVKGFYPSDIAVEWESNGQPENNYKTTPPVLDSDGSFFLVSKLTVDKSRWQQGNVFSCSVMHEALHNHYTQKSLSLSPGK heavy: not shown light: QAVVTQEPSLTVSPGGTVTLTCGSSTGAVTTSNYANWVQEKPGQAFRGLIGGTNKRAPGTPARFSGSLLGGKAALTLSGAQPEDEAEYYCALWYSNLWVFGGGTKLTVL
binds	G09 BsAb (GPRC5D&CD3 bispecific antibody) (bispecific antibody, not shown: human kappa constant region of vector pTT5-hKappa) DIQMTQSPSSLSASVGDRVTITCQASESISNYLSWYQQKPGKVPKLLIYRASTLASGVPSRFSGSGSGTDFTLTISSLQPEDVATYYCQGYDGSASSSNYESAFGQGTKLTVLGGGGSGGGGSGGGGSEVQLVESGGGLVQPGGSLRLSCAASGFSLSNNGITWVRQAPGKGLEWIGIITTTGSAYYAGWAKGRFTISRDNSKNTLYLQMNSLRAEDTAVYYCARGYGIHGLWGPGTLVTVSSDKTHTCPPCPAPELLGGPSVFLFPPKPKDTLMISRTPEVTCVVVDVSHEDPEVKFNWYVDGVEVHNAKTKPREEQYNSTYRVVSVLTVLHQDWLNGKEYKCKVSNKALPAPIEKTISKAKGQPREPQVCTLPPSREEMTKNQVSLSCAVKGFYPSDIAVEWESNGQPENNYKTTPPVLDSDGSFFLVSKLTVDKSRWQQGNVFSCSVMHEALHNHYTQKSLSLSPGK heavy: not shown light: QAVVTQEPSLTVSPGGTVTLTCGSSTGAVTTSNYANWVQEKPGQAFRGLIGGTNKRAPGTPARFSGSLLGGKAALTLSGAQPEDEAEYYCALWYSNLWVFGGGTKLTVL
binds	G00 BsAb (GPRC5D&CD3 bispecific antibody with the control scFv G00) (bispecific antibody, also called GOO; not shown: human kappa constant region of vector pTT5-hKappa) QSALTQPASVSGSPGQSITISCTGTSSDVGGYNYVSWYQQHPGKAPKLMIYDVSKRPSGVSNRFSGSKSGNTASLTISGLQAEDEADYYCSSYTRSSTEVFGGGTKLTVLGSRGGGGSGGGGSGGGGSLEMAEVQLVQSGAEVKKPGASVKVSCKASGYTFTSYYMHWVRQAPGQGLEWMGIINPSGGSTSYAQKFQGRVTMTRDTSTSTVYMELSSLRSEDTAVYYCARGGSKKWSGEKWRRENFDYWGQGTLVTVSSDKTHTCPPCPAPELLGGPSVFLFPPKPKDTLMISRTPEVTCVVVDVSHEDPEVKFNWYVDGVEVHNAKTKPREEQYNSTYRVVSVLTVLHQDWLNGKEYKCKVSNKALPAPIEKTISKAKGQPREPQVCTLPPSREEMTKNQVSLSCAVKGFYPSDIAVEWESNGQPENNYKTTPPVLDSDGSFFLVSKLTVDKSRWQQGNVFSCSVMHEALHNHYTQKSLSLSPGK heavy: not shown light: QAVVTQEPSLTVSPGGTVTLTCGSSTGAVTTSNYANWVQEKPGQAFRGLIGGTNKRAPGTPARFSGSLLGGKAALTLSGAQPEDEAEYYCALWYSNLWVFGGGTKLTVL
binds	G07 BsAb (GPRC5D&CD3 bispecific antibody) (bispecific antibody, not shown: human kappa constant region of vector pTT5-hKappa) DIQMTQSPSSLSASVGDRVTITCQASESVSKFLSWYQQKPGKVPKLLIYRASTLASGVPSRFSGSGSGTDFTLTISSLQPEDVATYYCQGYDGSSTTTNYESAFGQGTKLTVLGGGGSGGGGSGGGGSEVQLVESGGGLVQPGGSLRLSCAASGFSLTDNGITWVRQAPGKGLEWIGIMTTGGTTYYAGWAKGRFTISRDNSKNTLYLQMNSLRAEDTAVYYCARGYGIHGLWGPGTLVTVSSDKTHTCPPCPAPELLGGPSVFLFPPKPKDTLMISRTPEVTCVVVDVSHEDPEVKFNWYVDGVEVHNAKTKPREEQYNSTYRVVSVLTVLHQDWLNGKEYKCKVSNKALPAPIEKTISKAKGQPREPQVCTLPPSREEMTKNQVSLSCAVKGFYPSDIAVEWESNGQPENNYKTTPPVLDSDGSFFLVSKLTVDKSRWQQGNVFSCSVMHEALHNHYTQKSLSLSPGK heavy: not shown light: QAVVTQEPSLTVSPGGTVTLTCGSSTGAVTTSNYANWVQEKPGQAFRGLIGGTNKRAPGTPARFSGSLLGGKAALTLSGAQPEDEAEYYCALWYSNLWVFGGGTKLTVL

Molecular target: T1, human GPRC5D
Assay: flow cytometry, scFv-hFc titrated on K562-GPRC5D and RPMI 8226 cells; G00 told only as the weaker comparator

binding result	Binder
binds	control antibody G00 (MCARH109) as scFv-hFc IgG1 format antibody (Fc fusion, also called GOO; G00 scFv-hFc; not shown: human IgG1 Fc (hFc) of the scFv-hFc vector) QSALTQPASVSGSPGQSITISCTGTSSDVGGYNYVSWYQQHPGKAPKLMIYDVSKRPSGVSNRFSGSKSGNTASLTISGLQAEDEADYYCSSYTRSSTEVFGGGTKLTVLGSRGGGGSGGGGSGGGGSLEMAEVQLVQSGAEVKKPGASVKVSCKASGYTFTSYYMHWVRQAPGQGLEWMGIINPSGGSTSYAQKFQGRVTMTRDTSTSTVYMELSSLRSEDTAVYYCARGGSKKWSGEKWRRENFDYWGQGTLVTVSS

Molecular target: T1, human GPRC5D
Assay: flow cytometry, scFv-hFc at 20 ug/ml on MM.1S and NCI-H929 cells

binding result	Binder
binds	G02 scFv-hFc humanized IgG1 format antibody (Fc fusion, not shown: human IgG1 Fc (hFc) of the scFv-hFc vector) DIQMTQSPSTLSASVGDRVIINCQASQSVYNNNLLSWYQQKPGKAPKLLIYAASNLASGVPSRFSGSGSGAEFTLTISSLQPDDFATYYCQGYYGGAICAFGQGTKLTVLGGGGSGGGGSGGGGSEVQLVESGGGLVQPGGSLRLSCTASGFSLSSNAMSWVRQAPGKGLEWIGSIGRSGSTYNANWAKGRFTISRDNSKNTVYLQMNSLRAEDTAVYFCAKFTGGVSGGYFSVWGPGTLVTVSS
binds	G09 scFv-hFc humanized IgG1 format antibody (Fc fusion, not shown: human IgG1 Fc (hFc) of the scFv-hFc vector) DIQMTQSPSSLSASVGDRVTITCQASESISNYLSWYQQKPGKVPKLLIYRASTLASGVPSRFSGSGSGTDFTLTISSLQPEDVATYYCQGYDGSASSSNYESAFGQGTKLTVLGGGGSGGGGSGGGGSEVQLVESGGGLVQPGGSLRLSCAASGFSLSNNGITWVRQAPGKGLEWIGIITTTGSAYYAGWAKGRFTISRDNSKNTLYLQMNSLRAEDTAVYYCARGYGIHGLWGPGTLVTVSS
binds	G05 scFv-hFc humanized IgG1 format antibody (Fc fusion, not shown: human IgG1 Fc (hFc) of the scFv-hFc vector) DIQMTQSPSSLSASVGDRVTITCQASESISKFLSWYQQKPGKVPKLLIYRASTLASGVPSRFSGSGSGTDFTLTISSLQPEDVATYYCQGYDGSSTTTNYESAFGQGTKLTVLGGGGSGGGGSGGGGSEVQLVESGGGLVQPGGSLRLSCAASGFSLTDNGITWVRQAPGKGLEWIGIMTTGGSTYYAGWAKGRFTISRDNSKNTLYLQMNSLRAEDTATYFCTRGYGIHGLWGPGTLVTVSS
binds	G07 scFv-hFc humanized IgG1 format antibody (Fc fusion, not shown: human IgG1 Fc (hFc) of the scFv-hFc vector) DIQMTQSPSSLSASVGDRVTITCQASESVSKFLSWYQQKPGKVPKLLIYRASTLASGVPSRFSGSGSGTDFTLTISSLQPEDVATYYCQGYDGSSTTTNYESAFGQGTKLTVLGGGGSGGGGSGGGGSEVQLVESGGGLVQPGGSLRLSCAASGFSLTDNGITWVRQAPGKGLEWIGIMTTGGTTYYAGWAKGRFTISRDNSKNTLYLQMNSLRAEDTAVYYCARGYGIHGLWGPGTLVTVSS
